This test concerns the target Human IL-21 receptor on Baf3/KZ134/huIL-21R cells (human) (UniProt Q9HBE5). Nature of the test: cell-based or functional assay.

Experimental findings from patent US20120225065A1 are described below.

Chain of Human IL-21 receptor on Baf3/KZ134/huIL-21R cells (human) (Q9HBE5 20-538): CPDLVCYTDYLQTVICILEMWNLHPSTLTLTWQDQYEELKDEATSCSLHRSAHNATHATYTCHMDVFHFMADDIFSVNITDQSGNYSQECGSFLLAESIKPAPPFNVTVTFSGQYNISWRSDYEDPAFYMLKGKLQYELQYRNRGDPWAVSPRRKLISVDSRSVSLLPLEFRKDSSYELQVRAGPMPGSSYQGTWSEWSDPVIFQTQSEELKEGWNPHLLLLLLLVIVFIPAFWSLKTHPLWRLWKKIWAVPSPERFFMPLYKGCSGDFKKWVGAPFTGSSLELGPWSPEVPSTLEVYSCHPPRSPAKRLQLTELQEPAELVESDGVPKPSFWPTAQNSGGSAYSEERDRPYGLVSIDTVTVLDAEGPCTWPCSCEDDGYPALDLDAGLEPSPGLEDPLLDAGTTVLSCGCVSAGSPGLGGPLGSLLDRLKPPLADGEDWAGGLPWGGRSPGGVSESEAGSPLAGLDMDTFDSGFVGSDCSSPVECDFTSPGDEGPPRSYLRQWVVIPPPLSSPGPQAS

With “Recombinant rat IL-21 (from UniProt A3QPB9 18-146) (ligand)”, the EC90 in STAT-Luciferase assay was 1.08 nM.
